Reference: PMC9924070 (2021)

Key:
Assay in all cases: BLI
[1] = biological target: T1, monomeric human Fc-fused SARS-CoV-2_RBD-SD1 (SARS-CoV-2)
[2] = biological target: T1, monomeric human Fc-fused …; remark: listed apart in the source
[3] = biological target: T2, Mouse IgG1 Fc-fused SARS-CoV-2 RBD (SARS-CoV-2, UniProt P0DTC2)
[4] = biological target: T2, Mouse IgG1 Fc-fused SARS-CoV-2 RBD; remark: listed apart in the source

Row | Binder | koff [1] | Kd [2] | Kd [3] | koff [4]
1 | humVHH (VHH) VHH: EVQLVESGGGLVQPGGSLRLSCAASGRTFSEYAMGWFRQAPGKEREFVATISWSGGSTYYTDSVKGRFTISRDNAKNTVYLQMNSLRPEDTAVYYCAAAGLGTVVSEWDYDYDYWGQGTLVTVSS | 0.088 s⁻¹ | 63 nM | – | –
2 | humVHH_S56A (VHH) VHH: EVQLVESGGGLVQPGGSLRLSCAASGRTFSEYAMGWFRQAPGKEREFVATISWSGGATYYTDSVKGRFTISRDNAKNTVYLQMNSLRPEDTAVYYCAAAGLGTVVSEWDYDYDYWGQGTLVTVSS | 0.023 s⁻¹ | 8.3 nM | – | –
3 | humVHH_S56A/LALAPG-Fc (Fc fusion) EVQLVESGGGLVQPGGSLRLSCAASGRTFSEYAMGWFRQAPGKEREFVATISWSGGATYYTDSVKGRFTISRDNAKNTVYLQMNSLRPEDTAVYYCAAAGLGTVVSEWDYDYDYWGQGTLVTVSS | – | – | 0.0477 nM | 8.16e-05 s⁻¹
